Source: patent US20210205286A1

Experiments:
USP7 (endogenous) [1] = target: USP7 (endogenous) (UniProt Q93009); experiment: APEX2-Gal9 proximity biotinylation, SILAC LC-MS/MS, GPN; third of three experiments
USP7 (endogenous) [2] = target: USP7 (endogenous) (UniProt Q93009); experiment: APEX2-Gal9 proximity biotinylation, SILAC LC-MS/MS, LLOMe; first of three experiments
USP7 (endogenous) [3] = target: USP7 (endogenous) (UniProt Q93009); experiment: APEX2-Gal9 proximity biotinylation, SILAC LC-MS/MS, GPN; second of three experiments
USP7 (endogenous) [4] = target: USP7 (endogenous) (UniProt Q93009); experiment: APEX2-Gal9 proximity biotinylation, SILAC LC-MS/MS, GPN; first of three experiments
USP7 (endogenous) [5] = target: USP7 (endogenous) (UniProt Q93009); experiment: APEX2-Gal9 proximity biotinylation, SILAC LC-MS/MS, LLOMe; second of three experiments
USP7 (endogenous) [6] = target: USP7 (endogenous) (UniProt Q93009); experiment: APEX2-Gal9 proximity biotinylation, SILAC LC-MS/MS, LLOMe; third of three experiments

Chain of USP7 (endogenous) (Q93009 whole entry): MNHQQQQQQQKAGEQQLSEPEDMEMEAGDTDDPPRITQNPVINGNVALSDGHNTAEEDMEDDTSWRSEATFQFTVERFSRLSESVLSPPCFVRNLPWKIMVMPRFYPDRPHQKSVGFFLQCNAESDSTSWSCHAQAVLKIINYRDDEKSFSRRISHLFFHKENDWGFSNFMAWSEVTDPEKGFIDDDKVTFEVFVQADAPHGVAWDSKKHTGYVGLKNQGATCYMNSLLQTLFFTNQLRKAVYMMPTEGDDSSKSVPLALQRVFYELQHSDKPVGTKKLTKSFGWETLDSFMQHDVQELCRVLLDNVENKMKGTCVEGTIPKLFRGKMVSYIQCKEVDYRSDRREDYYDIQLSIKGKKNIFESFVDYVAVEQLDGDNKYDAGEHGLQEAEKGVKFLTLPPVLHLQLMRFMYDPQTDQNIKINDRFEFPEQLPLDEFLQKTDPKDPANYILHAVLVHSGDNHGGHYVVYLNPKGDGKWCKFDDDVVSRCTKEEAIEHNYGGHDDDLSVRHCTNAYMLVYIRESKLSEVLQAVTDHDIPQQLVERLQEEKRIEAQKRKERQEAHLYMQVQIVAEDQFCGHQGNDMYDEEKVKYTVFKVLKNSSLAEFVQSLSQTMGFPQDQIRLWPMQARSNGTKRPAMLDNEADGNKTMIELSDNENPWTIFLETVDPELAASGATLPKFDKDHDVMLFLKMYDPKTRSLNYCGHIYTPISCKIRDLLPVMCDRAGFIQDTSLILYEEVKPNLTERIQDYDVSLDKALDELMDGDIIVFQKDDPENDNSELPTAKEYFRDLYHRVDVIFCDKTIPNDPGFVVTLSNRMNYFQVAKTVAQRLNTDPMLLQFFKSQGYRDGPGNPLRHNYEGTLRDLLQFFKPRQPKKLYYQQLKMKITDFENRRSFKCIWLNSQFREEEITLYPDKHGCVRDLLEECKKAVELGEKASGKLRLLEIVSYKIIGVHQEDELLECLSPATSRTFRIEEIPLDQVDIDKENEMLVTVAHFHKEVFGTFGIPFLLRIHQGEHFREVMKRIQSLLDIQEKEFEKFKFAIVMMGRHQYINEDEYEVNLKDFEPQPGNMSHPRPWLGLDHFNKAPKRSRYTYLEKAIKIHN

peptide counts (peptide counts) (USP7 (endogenous) [1]): 3 | peptide counts (peptide counts) (USP7 (endogenous) [2]): 2 | peptide counts (peptide counts) (USP7 (endogenous) [3]): 4 | peptide counts (peptide counts) (USP7 (endogenous) [4]): 3 | peptide counts (peptide counts) (USP7 (endogenous) [5]): 3 | peptide counts (peptide counts) (USP7 (endogenous) [6]): 2
Substance: APEX2-myc-Gal9 (from UniProt O00182 1-323)
